Experimental data: patent publication US20240218057A1 (ROCKEFELLER UNIVERSITY, published 2024)
Residue numbers refer to the chain shown, from its start.

B1: C846 (antibody, V domains shown)
VH: QVQLVESGGGVFQPGRSLRLSCAASGFNFRTYAMHWVRQAPGKGLEWVAVILDDGSGKFYADSVKGRFTVSRDNSKHTLYLQMTSLSAEDTAIYFCARDQGTATTYFDHWGQGTLVTVSS
VL: DIQMTQSPSSLSASVGDRVTITCRASQSIRTFLSWYQQKAGKAPKLLIYTASSLQNGVPSRFSGSGSGTDFTLTISSLQPEDFATYYCQQSYETPPWTFGQGTKVEIK
notes: IgG; V domains only
B2: C839 (antibody, V domains shown)
VH: QVQLQESGPGLVKPLDTLSLTCTVSGASISSYYWSWIRQPAGKGLEWIGLIYSSGSTTYNPSLKSRVTMSVDTSKKQFSLNLSSMTAADTAVYYCARGSALNWKSIGYFDSWGQGTLVTV
VL: DIQMTQSPSSLSASIRDRVTITCQASQDISNYLNWYQQKAGEAPKLLIYDASSLETGVPSRFSGSGSGTEFTLTISSLQPEDIATYYCQQYDHVPLTFGGGTKVEIK
notes: IgG; V domains only
B3: C856 (antibody, V domains shown)
VH: QVQLVESGGGVVQPGRSLRLSCAASGFTFSSYGMHWVRQAPGKGLEWVAVISYDGSNKYYADSVKGRFTISRDNSKNTLYLQMSSLRAEDTAVYYCAKQIGEYCSGGSCYQGSLDYWGQGTLVTVSS
VL: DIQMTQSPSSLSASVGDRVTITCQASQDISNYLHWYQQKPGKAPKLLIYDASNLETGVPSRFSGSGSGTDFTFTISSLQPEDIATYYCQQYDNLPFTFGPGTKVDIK
notes: IgG; V domains only
B4: C843 (antibody, V domains shown)
VH: B3 VH with S31R, G33A, D62T, V64L, F68C, S84N, Y95F, S108N
VL: DIQMTQSPSSLSASVGDRVTITCQASQDISNYLNWYQQKPGKAPKLLIYDASDLETGVPSTFSGSGSGTDFTLTISSLQPEDFATYYCQQYDIVPFTFGPGTKVDIK
notes: IgG; V domains only
B5: C850 (antibody, V domains shown)
VH: QVQLQESGPGLVKPSETLSLICSVSGVSVSSRNFFWSWIRQPPGKGLEWIGYMSYGGNTNYNPSLKSRVTISIDTSKNQFSLKLSSVTAADTAVYYCARETYYYDRSGYYSSDGFDYWGQGILVTVSS
VL: EIVLTQSPGTLSLSPGERATLSCRASQSITSSSLAWYQQKRGQPPRLLIYGASSRATGIPDRFSGSGSGTDLTLTISRLEPEDFAVYYCQQYGNSPYTFGQGTKLEIK
notes: IgG; V domains only
B6: C842 (antibody, V domains shown)
VH: QVQLVESGGGVVQPGRSLRLSCAASGFTFSTYAIHWVRQAPGKGLEWVAAISYDGSNKYYSDSVKGRLFISRDNSNNTVYLQMNNLRAEDTAIYYCARDGTIVTLVRGVMGPPFDYWGQGTLVTVSS
VL: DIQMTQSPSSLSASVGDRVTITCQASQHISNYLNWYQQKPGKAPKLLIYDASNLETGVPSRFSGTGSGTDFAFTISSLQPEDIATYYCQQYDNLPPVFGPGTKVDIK
notes: IgG; V domains only
B7: C844 (antibody, V domains shown)
VH: EVQLVESGGGLVKPGGSLRLSCVATGFSFSDAWMNWVRQAPGKGLEWVGRIRSEIADGTTDYAAPVKGRFTISRDDARNTLYLQMNSLEIEDTAVYYCTTGVVVVVSSSPDDAFDVWGQGTMVTVSS
VL: DIQMTQSPSSLSASVGDRVTITCRASQSIGHYLNWYQQKPGKAPKLLIYAASSLQSGVPSRFSGSGSGAGFTLTVNGLQPEDLATYYCQQYYTTPPTFGQGTKVEIK
notes: IgG; V domains only
B8: C851 (antibody, V domains shown)
VH: QLQLQESGPGLVKTSETLSLTCTVSGGSISSGNSYWGWIRQPPGKGLEWIGDIYYSGSTFYNPSLKSRLTISVDTSKNQFSLKLTSVTAADTAVYYCARRGGRTPVRFNYGGDVWGQGTTVTVSS
VL: DIQMTQSPSSLSASVGDRVTITCQASQDISRYLNWFQHKPGKAPKLLIYDASNLEAGVPSRFTGSGSGTEFTFTISSLQPEDFAIYFCQQYDSLPLTFGGGTKVEI
notes: IgG; V domains only
B9: C841 (antibody, V domains shown)
VH: EVQLVESGGGLVQPGGSLRLSCAASGFTFSIFSMNWVRQAPGKGLEWISYISSSSGSRHYADSVKGRFTISRDNAKNSLYLQMNNLRDEDTAMYYCAREAHDGALTGYGDYLNWFDPWGQGVLVTVSS
VL: SYELTQPPSVSVAPGKTARIPCGGDSVGSKSVHWYQQKSGQAPVLVIHSDSDRPSGIPERFSGSNSGNTATLTITGVAAGDEADYYCHVWDTIGDRFYWVFGGGTKLTVL
notes: IgG; V domains only
B10: C864 (antibody, V domains shown)
VH: QVQLVQSGPEVKKPGTSVKVSCKAFQLSFSVSAVQWVRQARGQRLEWIGWIVVGSGNTNYAQKFQERVTITRDMSTSTVYMEVRSLRSEDTAVYYCAAPQCNRTTCYDAFDMWGQGTMVTVSS
VL: EIVLTQSPGTLSLSPGERATLSCRASQSVNSNYLAWYQQKPGQAPRLLIFGPSNRATGIPDRFSGSGSGTDFTLTISRLESEDFAVYYCQQYGSSPWTFGQGTKVEIK
notes: IgG; V domains only
B11: C865 (antibody, V domains shown)
VH: EVQLLESGGGLVQPGGSLRLSCVASRFIFSRYALSWVRQAPGKGLEWVSGISGSGHSTHYADSVTGRFTISRDNSKNTVYLQMSSLRAEDTAVYYCAKGPRSNYDYFESWGQGTLVTVSS
VL: DIQLTQSPSSLSASVGDRVTITCRASQGISSALAWYQQRPGKAPRLLIYDASSLDSGVPSRFSGSGSGTDFTLTISSLQSEDFATYYCQQFINNPLTFGGGTKVEIK
notes: IgG; V domains only
B12: C853 (antibody, V domains shown)
VH: QVQLQESGPGLVKASQTLSLTCTVSGGSFRSGGYYYNWIRQHPGKGLEWIGYIFYTGVTYYNPSLKSRVSISVDTSKNQLSLNLTSVTAADTAVYYCARGSYSDYNGGWDYWGRGTLVTVS
VL: QSALTQPPSASGSPGQSVTISCIGTSSDVGGYNYVSWYQHHPGKAPKLIIYEVSKRPSGVPDRFSGSKSGNTASLTVSGLQADDEADYYCSSYAGSNNWVFGGGTKLTV
notes: IgG; V domains only
B13: C840 (antibody, V domains shown)
VH: QVQLVESGGGVVQPGRSLRLSCEASGFTFTAYAMHWLRQAPGKGLEWVAVILNDGSNKLYADSVKGRFTVSRDNSKNMLYLQVNSLRVDDTAVYYCARDGSVDTLMVTWFDYWGQGTLVTVSS
VL: DIQMTQSPSSLSASVGDRVTITCRASQSVNNYLNWYQQKPGQAPKLLIYAASSLQSGVPLRFSGSGSGTDFALTITSLHTEDFATYYCQQSYNTPPWTFGPGTKVEIK
notes: IgG; V domains only
B14: C847 (antibody, V domains shown)
VH: QVQLVESGGGVVQPGGSLRLSCGASGFTFSSYAMHWVRQAPGEGLEWVAVILYDGAGKFYADSVKGRFTISRDNSKNTLYLQMNSLRAEDTAVYYCARDYGDYVTHFDYWGQGALVTVSS
VL: B1 VL with R30S, T31S, F32Y, S34N, A40P, N56S, S76T, E93N
notes: IgG; V domains only
B15: C857 (antibody, V domains shown)
VH: QVQLQESGPGLVKPSQTLSLTCTVSGGSISSGGYYWSWIRQHPGKGLEWIGYIYYSGSTYYNPSLESRVTISVDTSKNQFSLKLSSVTAADTAVYYCASGELSAFGELFPHDYWGQGTLVTVSS
VL: EIVLTQSPATLSLSPGERATLSCRASQSVSTYLAWYQQKPGQAPRLLIYDASNRATGIPARFSGSGSGTDFTLTISSLEPEDFAVYYCQQRSNWLFTFGPGTKVDIK
notes: IgG; V domains only
B16: C845 (antibody, V domains shown)
VH: QVQLQESGPGLVKPSQTLSLTCTVSGASISSGEYYWSWVRQPPGKGLEWVGYIYYSGSTYYNPSLKSRVTISVDTSKNHFSLKLKSLTAADTAVYFCATGGLSAFGELFPHDKWGQGTLVTVSS
VL: B15 VL with S30G, T31S, Y32D, A51T, E79D, E81A, S92T, T97S
notes: IgG; V domains only
B17: C863 (antibody, V domains shown)
VH: EVQLLESGGGLVRPGGSLRLSCAASGFIFGSYAMTWVRQAPGKGLEWVSTISGGGTSTDYADSVKGHFTISRDNGKNTLYLQMNSLRAEDTAVYYCVKESDYYMASVNGMDVWGHGTTVTVSS
VL: EIVLTQSPGTLSLSPGERATLSCRARQGVSSTYLAWYQQKPGQAPRLLIYGASSRATGIPDRFSGSGSGADFTLTISRLEPEDFAVYYCQQYGTSPYTFGQGTKLEIK
notes: IgG; V domains only
B18: C859 (antibody, V domains shown)
VH: QVQLVQSGAELKKPGASVRVSCKASGYTFTDYYIHWVRQAPGQGFEWMGWINPDSGGTNYPQNFQGRVTMTRGTSISTAYVELTRLRFDDTAVYYCARTSSPHSSSTGDLDYWGQGTLVTVS
VL: SYELTQSPSVSVAPGKTARITCGGRDIGSKSVHWYQQRPGQAPVLVISYDNDRPSGIPERFSGSNSGNTATLTISRVEAGDEADYYCQVWDGTGDHPGWVFGGGTRLTVL
notes: IgG; V domains only
B19: C849 (antibody, V domains shown)
VH: QVQLVQSGAEVKKPGASVKVSCRASGYTFTDHYIHWVRQAPGQGLEWMGWINPNSGDTNYPQKFQGRVTMARDTSISTAHMELRRLKSDDTAVYYCARTSSPHSSSTGDFDSWGQGTLVTVSS
VL: B18 VL with S7P, R25D, R38K, P39S, S48H, Y49D, N51S, G92F, R106K
notes: IgG; V domains only
B20: C854 (antibody, V domains shown)
VH: EVQLVESGGGLIQPGGSLRLSCAASGITVSSNYMNWVRQAPGKGLEWVSVLYAGGSTFYADSVKGRFTISRDDSKNTLYLQMDSLRAEDTAVYYCARDLSSSGGFDYWGQGTLVTVSS
VL: EIVLTQSPGTLSLSPGERATLSCRASQSVSSSYLAWYQQKPGQAPRLLIYGASSRATGIPDRFSGRGSGTDFTLTISRLEPEDFAVYYCQQYGSLYTFGQGTKLEIK
notes: IgG; V domains only
B21: C860 (antibody, V domains shown)
VH: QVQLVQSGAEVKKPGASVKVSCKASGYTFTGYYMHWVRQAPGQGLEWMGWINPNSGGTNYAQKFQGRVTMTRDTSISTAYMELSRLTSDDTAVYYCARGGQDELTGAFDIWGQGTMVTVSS
VL: SYELTQPPSVSVAPGKTARITCGGNSIGSKSVHWYQQKPGQAPVLVIYYDSDRPSGIPERFSGSNSGNTATLTISRVEAGDEADFHCQVWDSGWVFGGGTKLTVL
notes: IgG; V domains only
B22: C852 (antibody, V domains shown)
VH: QVQLVQSGAEVKKPGASVKVSCKASGYIFTGFYMHWVRQAPGQGPEWMGWINPNSGGTNYAQKFQGRVTMTRDTSISTAYMELSRLRSDDTALYYCARGGQDELTGTFDVWGQGTMVTVSS
VL: B21 VL with V12L, R19S, N25D, K38R, V44I, S51G, F85Y, H86Y, S92G
notes: IgG; V domains only
B23: C855 (antibody, V domains shown)
VH: QVQLVESGGGVVQPGRSLRLSCAASGFAFSTYGMHWVRQTPGKGLAWVAAISYDGRNTYYGDSVKGRFTITRDNSKNTLYLQLNSLRDEDTALYYCARDATMITLVRGIMGPPFDHWGQGSLVTVSS
VL: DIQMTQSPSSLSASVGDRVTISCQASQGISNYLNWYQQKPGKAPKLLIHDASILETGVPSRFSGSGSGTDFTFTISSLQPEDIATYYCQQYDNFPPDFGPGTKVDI
notes: IgG; V domains only
B24: C848 (antibody, V domains shown)
VH: QVQLQESGPGLVKPSQTLSLTCTVSGGSISSGDYYWSWIRQPPGKGLEWIGYIYYTGITYYRPSLKSRVTISVDTSKNQFSLKLSSVTAADTAVFYCARVVRLWPRYFDSWGQGTLVTVSS
VL: QSALTQPPSASGSPGQSVTISCTGTSSDVGTYDYVSWYQQHPGKAPKVIIYEVTKRPSGVPDRFSGSKSGNTASLTVSGLQAEDEAHYYCSTYAGSDNLEFGGGTKLTVL
notes: IgG; V domains only

Molecular target: T1, SARS-COV-2 RBD (SARS-COV-2, UniProt P0DTC2 319-539)
T1 construct: also called WT RBD
Assay: ELISA, RBD coated

Binder	EC50
B1	3.48 ng/mL
B2	4.38 ng/mL
B3	2.65 ng/mL
B4	2.4 ng/mL
B5	3.7 ng/mL
B6	3.01 ng/mL
B7	1.53 ng/mL
B8	2.83 ng/mL
B9	3.15 ng/mL
B10	1.89 ng/mL
B11	2.14 ng/mL
B12	2.3 ng/mL
B13	1.36 ng/mL
B14	3.06 ng/mL
B15	2.01 ng/mL
B16	1.5 ng/mL
B17	3.31 ng/mL
B18	2.75 ng/mL
B19	3.64 ng/mL
B20	2.57 ng/mL
B21	2.61 ng/mL
B22	4.59 ng/mL
B23	2.73 ng/mL
B24	2.23 ng/mL
